Source: the supplement of paper PMC12042874
± gives the uncertainty stated by the source.

Experiment: amyloid nucleation score (Sup35N fusion, yeast selection) (log enrichment); library NNK1; higher = more nucleation; inactive = no reads after selection
How it was run: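 DiMSum was used to calculate nucleation scores as log enrichment of output over input reads, centred on the mode score of non-aggregating sequences. Sequences with fewer than 100 input reads were not scored. Input and output came from Illumina sequencing of plasmid inserts in psi-negative yeast expressing peptides of 20 random codons fused to Sup35N, induced 24 hours with 100 μM copper sulfate and then grown 7 days at 30°C on medium lacking adenine and uracil.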
In the case of RFMSTSLFLMVSNELLSPLM, the amyloid nucleation score is reported as 1.27 ± 0.16.
With RFMTHLVRRLYAFGMSF the amyloid nucleation score was “inactive”.
Substance RFQGGWSRF has an amyloid nucleation score of 3.68 ± 0.11.
Work on RFRNGLNLFRMSNMFSNLKH yielded an amyloid nucleation score of -0.129 ± 1.1.
In the case of RFRVEGPMYFICICKRLFTY, the amyloid nucleation score is reported as -0.555 ± 0.44.
With RFVIVEVSWLDSLLRLSWED the amyloid nucleation score was 0.277 ± 0.99.
Work on RFVLKYSSFFMFTIRWCVVV yielded an amyloid nucleation score of -0.027 ± 0.44.
In the case of RFYIGIVIQRTYGRC, the amyloid nucleation score is reported as 2.79 ± 0.071.
RGEILCWWIGFYFVAVK gave an amyloid nucleation score of 0.149 ± 0.32.
Substance RGGGAEKLLQSTCNSYVVWL has an amyloid nucleation score of 3.66 ± 0.061.
In the case of RGGNLSRAFNYVRYIITHKN, the amyloid nucleation score is reported as 0.145 ± 0.46.
RGILNRVTLILDLRVHSSSD showed an amyloid nucleation score of 0.504 ± 0.32.
In the case of RGITNCVQCPVIPWFLRYYG, the amyloid nucleation score is reported as -0.401 ± 0.31.
In the case of RGRDHCYTTDWNGYRVMVPL, the amyloid nucleation score is reported as 0.58 ± 0.51.
In the case of RGSTLSGVYCAENRASGFDS, the amyloid nucleation score is reported as 0.93 ± 0.33.
Work on RGSVIWRRRWTTESWSSYFG yielded an amyloid nucleation score of 1.25 ± 0.72.
Substance RGYMCHCRVVSACFLYRKVQ has an amyloid nucleation score of -0.044 ± 0.25.
For RGYQNSLFTGMRRSSGSWSI, the amyloid nucleation score was 0.43 ± 0.77.
With RGYSSTPRFVNIACYMVQSL the amyloid nucleation score was 2.45 ± 0.26.
For RHADIWSDFPR, the amyloid nucleation score was 1.53 ± 0.7.
With RHFRMGRHRFEGWVLTGASG the amyloid nucleation score was 0.194 ± 0.38.
With RHKYMWM the amyloid nucleation score was 1.46 ± 0.81.
For RHRDLGWRVIRWRAFMTSLW, the amyloid nucleation score was -1.31 ± 2.1.
In the case of RHWDIRSGHNLWQMVG, the amyloid nucleation score is reported as -0.55 ± 0.38.
For RIFFYTISYPLILIKVFCYL, the amyloid nucleation score was “inactive”.
For RIGGETGCV, the amyloid nucleation score was 0.216 ± 0.27.
Work on RIHRVHRKF yielded an amyloid nucleation score of -0.33 ± 0.38.
RIIITLH gave an amyloid nucleation score of 0.264 ± 0.31.
RIILGETGAALWWRI showed an amyloid nucleation score of 4.61 ± 0.079.
Substance RIISRCFVMDVWFERQYVTR has an amyloid nucleation score of 1.96 ± 0.18.
Work on RIKYAWFCVFGTWNRIRVRI yielded an amyloid nucleation score of 1.1 ± 0.68.
Work on RILCHLTNRWFEFDEVLVGV yielded an amyloid nucleation score of 0.835 ± 0.48.
RILRDQTWIPSMATDSILVC gave an amyloid nucleation score of -1.23 ± 0.79.
For RIMMMGQLTFVYMGQHSSMV, the amyloid nucleation score was -0.062 ± 0.57.
RINVYII showed an amyloid nucleation score of 3.25 ± 0.19.
Substance RISYTDCMVEQLHPNQLWQN has an amyloid nucleation score of -0.069 ± 0.52.
Work on RIWSLRPFRSEYLRVCFFVS yielded an amyloid nucleation score of 0.437 ± 0.78.
RIYLRFYLIIR showed an amyloid nucleation score of 1.07 ± 0.85.
RKALYA gave an amyloid nucleation score of -0.117 ± 0.38.
In the case of RKFVC, the amyloid nucleation score is reported as -0.729 ± 1.7.
With RKRSSRVIDVTGRWAVLTYP the amyloid nucleation score was 0.074 ± 0.46.
Substance RKSEGIDVCGYNISAIYFKC has an amyloid nucleation score of 0.142 ± 0.64.
RKYQQGSLHDSGIKNHFFRV showed an amyloid nucleation score of -0.97 ± 1.7.
RLASMREHLVWYRRGFRVCC showed an amyloid nucleation score of 0.725 ± 0.58.
RLCAINHPLCTFSQTMAWVH gave an amyloid nucleation score of 0.272 ± 0.29.
RLFPYQFM gave an amyloid nucleation score of -0.286 ± 0.63.
With RLFWLRNLPLWASYK the amyloid nucleation score was 0.07 ± 0.47.
Substance RLGCGSM has an amyloid nucleation score of 0.769 ± 0.45.
Substance RLGPYSATWFVGKGKREGGV has an amyloid nucleation score of 0.571 ± 0.55.
Work on RLHMRRRPFVNTHVS yielded an amyloid nucleation score of 0.54 ± 0.42.
For RLHSS, the amyloid nucleation score was -0.036 ± 0.32.
RLIHRPVWV showed an amyloid nucleation score of 0.526 ± 0.48.
Work on RLKHDWWITVCLYRVQLNTV yielded an amyloid nucleation score of 1.59 ± 0.55.
In the case of RLLLYG, the amyloid nucleation score is reported as “inactive”.
For RLLRPFGWLANSRLTTVWFH, the amyloid nucleation score was -0.122 ± 0.68.
RLLWRWWRAVDVRGHDRLNL showed an amyloid nucleation score of -0.306 ± 1.2.
RLNLSLSVR gave an amyloid nucleation score of 0.517 ± 0.55.
RLNNLWKFDEVLLGSSNRTR gave an amyloid nucleation score of -1.24 ± 0.44.
RLNNRRFLSWRCTNNQCWRV showed an amyloid nucleation score of -0.159 ± 0.86.
In the case of RLNWVYSRNNASLSGVYMKR, the amyloid nucleation score is reported as 0.116 ± 0.24.
In the case of RLRDTNVYTTQFFVFYLMNW, the amyloid nucleation score is reported as 6.677 ± 0.051.
In the case of RLSLTINFGNKFRCITGQFD, the amyloid nucleation score is reported as 4.01 ± 0.091.
RLSSSCSSAEDWYRKGHLLK showed an amyloid nucleation score of -0.063 ± 0.4.
Work on RLSYISPPSVYLALSRSRMD yielded an amyloid nucleation score of 0.229 ± 0.75.
RLVKSEDSNKNGLDLCRYEL showed an amyloid nucleation score of 0.753 ± 0.56.
Substance RLWSRPSS has an amyloid nucleation score of 1.14 ± 0.79.
RLYFRSSYDCDETRWKEKYM gave an amyloid nucleation score of 0.049 ± 0.38.
RLYNLTSVRKFVLLSSM showed an amyloid nucleation score of 0.235 ± 0.4.
Work on RMEQSCWMTSECRRWKGVWL yielded an amyloid nucleation score of 0.827 ± 0.44.
With RMFPCYIAV the amyloid nucleation score was 0.015 ± 0.27.
In the case of RMLCYEFCCLNLDVGIYCAS, the amyloid nucleation score is reported as “inactive”.
RMLDY showed an amyloid nucleation score of 0.318 ± 1.2.
In the case of RMSLLYLSSVKLFNWHAALG, the amyloid nucleation score is reported as -0.465 ± 0.6.
RNDHSRDHPFLDISWVCLGQ showed an amyloid nucleation score of 0.58 ± 1.2.
Work on RNDTSDVYGSSGRSNRP yielded an amyloid nucleation score of 0.007 ± 0.37.
RNFCSSEGPSRHERLCNTKR showed an amyloid nucleation score of -0.542 ± 0.68.
In the case of RNGPSWYSAIPY, the amyloid nucleation score is reported as “inactive”.
Work on RNHDANFPCRVDGPLQSTVR yielded an amyloid nucleation score of 0.135 ± 0.4.
RNLYQFM showed an amyloid nucleation score of 0.203 ± 0.27.
RNSSGRGERLLVQYAQKKKR gave an amyloid nucleation score of -0.136 ± 0.41.
RNWDMGHKQP showed an amyloid nucleation score of 2.66 ± 0.12.
RNWLLDTNSLQVMSPYIFEV showed an amyloid nucleation score of -0.41 ± 0.74.
With RNYTVKKMNLC the amyloid nucleation score was “inactive”.
Substance RPGVNLWVLFVTMQTPEIRL has an amyloid nucleation score of 3.01 ± 0.11.
Work on RPLALRVQDSPKSFGQSP yielded an amyloid nucleation score of 0.145 ± 0.7.
Substance RPLFIMSLFRGWRRIKLHGS has an amyloid nucleation score of -0.527 ± 0.49.
